# Results from article PMC6975058.
# Assays:
# [1] = molecular target: trastuzumab heavy chain produced alone in HEK293 (in vivo folded HC); test: denaturing, non-reducing SDS-PAGE; MiniProtean TGX Stain-free gels 4-20%, band densitometry; shows only disulfide-linked species
# [2] = molecular target: trastuzumab light chain produced alone in HEK293 (in vivo folded LC); test: as above
# [3] = molecular target: trastuzumab light chain produced alone in HEK293 (in vivo folded LC); test: SEC; SEC-HPLC under native conditions, Zenix-C SEC-300, mobile phase PBS, 0.35 ml/min, absorbance at 214 nm; the isolated chain alone
# [4] = molecular target: trastuzumab light chain, refolded in vitro by slow dialysis; test: as above
substance,measurement,setting,value
trastuzumab heavy chain produced alone in HEK293 (in vivo folded HC) (domain or fragment),stoichiometry N,[1],2
trastuzumab light chain produced alone in HEK293 (in vivo folded LC) (domain or fragment),percent of LC in the 42 KDa band under denaturing conditions,[2],55%
same,stoichiometry N,[3],2
"trastuzumab light chain, refolded in vitro by slow dialysis (domain or fragment)",stoichiometry N,[4],2
